The record followed here is publication PMC12058526.

The assay concerns the target human endogenous fatty acid synthase (FASN) (human) (UniProt P49327). Put plainly: cryo-EM structure; purified endogenous FASN at 0.5-1.0 mg/ml in TBS buffer, alone or incubated 30 min with 1 mM orlistat or 3 mM 1,3-DBP; C2 symmetry applied; condensing and modifying wings refined separately.

A word on the stoichiometry N: it is the number of molecules, sites or subunits per partner or assembly. For “human endogenous fatty acid synthase (FASN), P49327 1-2511”, the stoichiometry N came out at 2.
